Measurements published in patent publication US5618790A, “Protease mediated drug delivery system” (Queen's University at Kingston, priority 1994, dated 1997).
Starred links: 1 amine or outer side, 2 acyl side, 3 side chain; linkers in the order of their positions; H or OH if unused. Positions of bridges follow the written chain, without caps; N, C: chain ends. Residues, ends and D or L forms follow the SMILES beside them. Chains are numbered I, II in the order given. X1 = CCC1=C(C)c2cc3[nH]c(cc4nc(cc5[nH]c(cc1n2)c(C)c5CCC(=O)[*:1])C(CCC(=O)[*:2])=C4C)c(C)c3CC

Tests used:
[1] = Solubility of the purified compound; format: physicochemical
Text: The purified compound was a purple-red powder that was quite soluble in water in neutral pH, in isotonic saline for injection (U.S.P.), and in fresh heparinized human blood and plasma. Aqueous solutions were strongly fluorescent when exposed to 410 nm light.

[2] = Fluorescence in heparinized whole blood and plasma; format: in vitro ADME; settings: heparinized whole blood and plasma samples; spectrophotofluorometer
Procedure: Aliquots of the porphyrin compound of Example 1 were added to heparinized whole blood and plasma samples which were then examined by spectrophotofluorometer.

[3] = Toxicity after intraperitoneal injection into mice; format: in vivo; settings: intraperitoneally, dosages up to 20 mg/kg body weight
Procedure: The porphyrin compound of Example 1 was injected intraperitoneally into mice at dosages up to 20 mg/kg body weight.

Clostridium perfringens = settings: mouse, in vivo, 20 mg/kg

With `CCC1=C(C)c2cc3[nH]c(cc4nc(cc5[nH]c(cc1n2)c(C)c5CCC(=O)NCC(=O)N1CCC[C@H]1C(=O)N[C@@H](CC(C)C)C(=O)NCC(=O)N1CCC[C@H]1C(=O)N[C@@H](C)C(=O)N[C@@H](CCCCN)C(=O)N[C@@H](CCCCN)C(=O)N[C@@H](CCCCN)C(=O)N[C@@H](CCCCN)C(=O)O)C(CCC(=O)NCC(=O)N1CCC[C@H]1C(=O)N[C@@H](CC(C)C)C(=O)NCC(=O)N1CCC[C@H]1C(=O)N[C@@H](C)C(=O)N[C@@H](CCCCN)C(=O)N[C@@H](CCCCN)C(=O)N[C@@H](CCCCN)C(=O)N[C@@H](CCCCN)C(=O)O)=C4C)c(C)c3CC` [porphyrin compound of Example 1, mesoporphyrin IX (Gly--Pro--Leu--Gly--Pro--Ala--Lys--Lys--Lys--Lys)2] (I: GPLGPAKKKK-OH / II: GPLGPAKKKK-OH; linker I:N-II:N via X1) the solubility ([1]; fresh heparinized human blood and plasma) was “quite soluble”, the solubility ([1]; isotonic saline for injection (U.S.P.)) was “quite soluble” and the solubility ([1]; water in neutral pH) was “quite soluble”. For the same compound, the “effect on fluorescence intensity (stability of the collagenase sensitive peptide)” value [2] was “No effect on fluorescence intensity”, the toxic effects [3] was “No toxic effects were observed” and the “increase of porphyrin fluorescence relative to the background fluorescence (factor)” value (Clostridium perfringens) was “three”.
